Publication doi:10.1101/2022.02.05.479199 (bioRxiv, 2022)

Biological target: Replication protein A (Saccharomyces cerevisiae RPA) (S. cerevisiae, UniProt P22336;P26754;P26755)
Test: AUC

Sequence of Replication protein A (Saccharomyces cerevisiae RPA) (P22336 whole entry, chain 1 of 3): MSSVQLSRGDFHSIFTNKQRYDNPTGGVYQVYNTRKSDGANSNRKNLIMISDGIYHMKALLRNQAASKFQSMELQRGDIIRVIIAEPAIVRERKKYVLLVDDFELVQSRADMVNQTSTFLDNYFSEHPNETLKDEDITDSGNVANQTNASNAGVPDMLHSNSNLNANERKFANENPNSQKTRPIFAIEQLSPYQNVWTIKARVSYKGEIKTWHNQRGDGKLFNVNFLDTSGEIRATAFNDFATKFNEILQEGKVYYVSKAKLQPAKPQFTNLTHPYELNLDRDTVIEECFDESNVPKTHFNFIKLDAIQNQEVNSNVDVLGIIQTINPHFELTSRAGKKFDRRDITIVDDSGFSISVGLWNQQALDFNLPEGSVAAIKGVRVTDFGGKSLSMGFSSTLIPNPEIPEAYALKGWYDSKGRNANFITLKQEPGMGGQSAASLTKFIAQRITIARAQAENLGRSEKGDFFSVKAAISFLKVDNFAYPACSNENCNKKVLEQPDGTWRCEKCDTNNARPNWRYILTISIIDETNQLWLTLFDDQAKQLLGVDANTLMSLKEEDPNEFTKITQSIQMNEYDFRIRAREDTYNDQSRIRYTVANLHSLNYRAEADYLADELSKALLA
Sequence of Replication protein A (Saccharomyces cerevisiae RPA) (P26754 whole entry, chain 2 of 3): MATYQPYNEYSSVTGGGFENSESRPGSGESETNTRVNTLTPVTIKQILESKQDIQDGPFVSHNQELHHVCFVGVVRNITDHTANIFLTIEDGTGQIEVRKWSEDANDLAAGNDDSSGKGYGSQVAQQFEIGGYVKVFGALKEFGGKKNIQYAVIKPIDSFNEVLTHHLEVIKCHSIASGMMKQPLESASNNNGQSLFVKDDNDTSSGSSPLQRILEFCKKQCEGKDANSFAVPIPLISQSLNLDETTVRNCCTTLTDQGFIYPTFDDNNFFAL
Sequence of Replication protein A (Saccharomyces cerevisiae RPA) (P26755 whole entry, chain 3 of 3): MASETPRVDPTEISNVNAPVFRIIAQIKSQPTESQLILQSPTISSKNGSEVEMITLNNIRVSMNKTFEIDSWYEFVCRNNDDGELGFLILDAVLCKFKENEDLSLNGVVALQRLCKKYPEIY

B1: Rtt105^Cy5 (natural protein)
chain: MYSNHNLNSDDCSFDWNEEKAAELQRTGVSFDRSLTPQSLRTSTRRLSEENKQQSGTMHIDTSPSVVSDIISSRRDRSQDFFGPHSSSPIAPSERQRADQRSRLESMRLTRRRDKMTKVRGGLEKMEEMIMQGEHLREMQRLKQEAQKNALPSDMAEYMEWQNNEDLEDDELLAFIEKQETYKNELEHFLNNANKNVYENNSYPNSHT
modifications: Cy5 (maleimide) on Cys-12
B1: binds.
